In doi:10.1101/824458 (bioRxiv, 2019):

B1: viperin-ΔN50 (residues 50-361), recombinant, C-terminal His6-tagged, iron-sulfur cluster reconstituted (domain or fragment, human, UniProt Q8WXG1 50-361, looked up)
chain: QLVLRGPDETKEEEEDPPLPTTPTSVNYHFTRQCNYKCGFCFHTAKTSFVLPLEEAKRGLLLLKEAGMEKINFSGGEPFLQDRGEYLGKLVRFCKVELRLPSVSIVSNGSLIRERWFQNYGEYLDILAISCDSFDEEVNVLIGRGQGKKNHVENLQKLRRWCRDYRVAFKINSVINRFNVEEDMTEQIKALNPVRWKVFQCLLIEGENCGEDALREAERFVIGDEEFERFLERHKEVSCLVPESNQKMKDSYLILDEYMRFLNCRKGRKDPSKSILDVGVEEAIKFSGFDEKMFLKRGGKYIWSKADLKLDW
B2: VAP-33-ΔC20 (recombinant human VAP-33 protein, residues 1-227) (domain or fragment, UniProt Q9P0L0 1-227, looked up)
chain: MASASGAMAKHEQILVLDPPTDLKFKGPFTDVVTTNLKLRNPSDRKVCFKVKTTAPRRYCVRPNSGIIDPGSTVTVSVMLQPFDYDPNEKSKHKFMVQTIFAPPNTSDMEAVWKEAKPDELMDSKLRCVFEMPNENDKLNDMEPSKAVPLNASKQDGPMPKPHSVSLNDTETRKLMEECKRLQGEMMKLSEENRHLRDEGLRLRKVAHSDKPGSTSTASFRDNVTSP

Columns and labels:
[1] = target: NS5A-ΔN39 (residues 39-447), recombinant, lacking the membrane-binding amphipathic helix (hepatitis C virus) (UniProt Q9WMX2); experiment: cross-linking
cross-linking = target: the molecule itself; experiment: cross-linking

Molecule | stoichiometry N [1] | stoichiometry N (cross-linking)
NS5A-ΔN39 (residues 39-447), recombinant, lacking the membrane-binding amphipathic helix (from UniProt Q9WMX2 40-448) (domain or fragment) | 2 | 
B1 |  | 2
B2 |  | 2
